Data published in patent US20170165365A1 (SYMPHOGEN A S, published 2017).

T1: human HER4 antigen (human, UniProt Q15303 26-649, limits assumed)
T1 construct: Antigen coated for ELISA
T1 sequence (looked up): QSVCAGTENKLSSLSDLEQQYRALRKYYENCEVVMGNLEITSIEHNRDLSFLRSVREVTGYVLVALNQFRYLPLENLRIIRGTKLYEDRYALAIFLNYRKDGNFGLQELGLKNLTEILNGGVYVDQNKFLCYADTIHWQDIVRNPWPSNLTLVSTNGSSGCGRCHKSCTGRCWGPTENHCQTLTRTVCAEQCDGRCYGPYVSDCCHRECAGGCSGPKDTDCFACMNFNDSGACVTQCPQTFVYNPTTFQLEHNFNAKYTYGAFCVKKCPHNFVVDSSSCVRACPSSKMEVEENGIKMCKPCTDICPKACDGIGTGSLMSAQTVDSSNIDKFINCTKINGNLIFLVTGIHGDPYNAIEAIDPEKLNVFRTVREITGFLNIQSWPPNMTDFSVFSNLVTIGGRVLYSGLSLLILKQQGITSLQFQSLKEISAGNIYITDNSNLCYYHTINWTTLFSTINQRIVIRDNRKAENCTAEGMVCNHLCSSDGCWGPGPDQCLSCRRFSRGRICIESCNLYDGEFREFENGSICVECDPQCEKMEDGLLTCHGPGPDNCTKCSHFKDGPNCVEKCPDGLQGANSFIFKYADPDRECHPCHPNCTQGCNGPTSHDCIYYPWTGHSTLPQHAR

T2: murine HER4 antigen (mouse, UniProt Q61527 26-652, limits assumed)
T2 construct: In-house antigen coated for ELISA; also called mouse HER4
T2 sequence (looked up): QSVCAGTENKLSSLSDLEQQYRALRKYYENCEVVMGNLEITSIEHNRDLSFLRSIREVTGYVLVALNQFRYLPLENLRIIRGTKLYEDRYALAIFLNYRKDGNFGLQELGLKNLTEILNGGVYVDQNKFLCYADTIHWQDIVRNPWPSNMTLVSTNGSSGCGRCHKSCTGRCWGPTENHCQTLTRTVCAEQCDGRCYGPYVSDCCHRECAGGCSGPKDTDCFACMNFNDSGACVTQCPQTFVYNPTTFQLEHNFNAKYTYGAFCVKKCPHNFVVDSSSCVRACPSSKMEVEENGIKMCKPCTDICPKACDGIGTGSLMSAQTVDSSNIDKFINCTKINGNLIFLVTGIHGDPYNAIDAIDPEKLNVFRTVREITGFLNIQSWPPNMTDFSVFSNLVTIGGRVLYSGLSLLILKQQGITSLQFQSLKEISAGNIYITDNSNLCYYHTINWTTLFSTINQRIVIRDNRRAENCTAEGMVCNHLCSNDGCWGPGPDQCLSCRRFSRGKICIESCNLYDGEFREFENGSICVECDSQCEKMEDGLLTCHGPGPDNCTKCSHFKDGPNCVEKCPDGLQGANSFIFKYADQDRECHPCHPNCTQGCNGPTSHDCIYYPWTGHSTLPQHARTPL


Tests used:
cynomolgus EGFR antigen = target: T3, cynomolgus EGFR antigen (cynomolgus monkey, UniProt A0A2K5WK39 25-645); experiment: SPR (ProteOn XPR36), IgG captured by anti-human Fc, soluble monovalent antigen, 1:1 fit
T3 construct: In-house antigen; also called cynomolgus antigen
Method: (§1) Kinetic binding analysis of the purified humanized variants was performed on a ProteOn™ XPR36 biosensor (BioRad, USA) employing an IgG capture assay as described by Canziani et al. (Anal. Biochem. (2004) 325:301-307) that allows for measurement of antibody affinities of whole IgG molecules against soluble antigen under monovalent conditions. Briefly, approximately 5000 resonance units (RU) of a monoclonal mouse anti-human IgG Fc antibody (GE Healthcare, Denmark) was conjugated to a GLC chip surface (BioRad, USA) according to the manufacturer's instructions, followed by capture of individual antibodies of the invention or a negative control on the anti-Fc sensor surface. […] Next, 250 μl monovalent antigen (Sino Biologicals) was injected at a flow rate of 50 μl/min in serial threefold dilutions from 100 nM stock to generate response curves. The chip surface was regenerated between cycles by stripping the captured antibody/antigen complexes off the surface with a 10-second injection of 3 M MgCl₂ (GE Healthcare, Denmark) repeated three times. Finally, binding responses were fitted to a Langmuir 1:1 binding model for calculation of the on-rate (kon or ka), off-rate (koff or kd) and affinity (KD) constants using double referencing.

[1] = target: T4, human EGFR antigen (Sino Biologicals) (human, UniProt P00533 25-645); experiment: as above
T4 construct: Bought soluble antigen; also called human antigen
Method: as §1

cynomolgus HER3 antigen = target: T5, cynomolgus HER3 antigen (cynomolgus monkey, UniProt G7PIG5 20-643); experiment: ELISA, coated cy HER3
T5 construct: In-house antigen; also called cynomolgus antigen
Method: (§2) Antibody-antigen binding was measured by ELISA with coated antigens. Human antigens were obtained from Sino Biologicals. All other antigens were produced in-house by transient expression in CHO or HEK293 cells. Chimeric and humanized antibodies, as well as an isotype control antibody, were incubated with the coated antigens at different concentrations. After wash, bound antibodies were detected by HRP-(horse radish peroxidase)-conjugated secondary antibodies.

mouse HER3 antigen = target: T6, mouse HER3 antigen (mouse, UniProt Q61526 20-641, limits assumed); experiment: ELISA, coated mu HER3
T6 construct: In-house antigen coated for ELISA; also called mouse antigen; murine HER3
Method: as §2

human HER4 antigen = target: T1, human HER4 antigen; experiment: ELISA, coated hu HER4
Method: as §2

[2] = target: T7, human HER2 antigen (Sino Biologicals) (human, UniProt P04626 23-652); experiment: ELISA, coated hu HER2
T7 construct: Bought soluble antigen; also called human antigen
Method: as §2

mouse EGFR antigen = target: T8, mouse EGFR antigen (mouse, UniProt Q01279 25-647, limits assumed); experiment: ELISA, coated mu EGFR
T8 construct: In-house antigen coated for ELISA; also called mouse antigen; murine EGFR
Method: as §2

murine HER4 antigen = target: T2, murine HER4 antigen; experiment: ELISA, coated mu HER4
Method: as §2

mouse HER2 antigen = target: T9, mouse HER2 antigen (mouse, UniProt P70424 23-653, limits assumed); experiment: ELISA, coated mu HER2
T9 construct: In-house antigen coated for ELISA; also called mouse antigen; murine HER2
Method: as §2

[3] = target: T10, human HER3 antigen (Sino Biologicals) (human, UniProt P21860 20-643); experiment: ELISA, coated hu HER3
T10 construct: Bought soluble antigen; also called human antigen
Method: as §2

T9 sequence (P70424 23-653 limits assumed): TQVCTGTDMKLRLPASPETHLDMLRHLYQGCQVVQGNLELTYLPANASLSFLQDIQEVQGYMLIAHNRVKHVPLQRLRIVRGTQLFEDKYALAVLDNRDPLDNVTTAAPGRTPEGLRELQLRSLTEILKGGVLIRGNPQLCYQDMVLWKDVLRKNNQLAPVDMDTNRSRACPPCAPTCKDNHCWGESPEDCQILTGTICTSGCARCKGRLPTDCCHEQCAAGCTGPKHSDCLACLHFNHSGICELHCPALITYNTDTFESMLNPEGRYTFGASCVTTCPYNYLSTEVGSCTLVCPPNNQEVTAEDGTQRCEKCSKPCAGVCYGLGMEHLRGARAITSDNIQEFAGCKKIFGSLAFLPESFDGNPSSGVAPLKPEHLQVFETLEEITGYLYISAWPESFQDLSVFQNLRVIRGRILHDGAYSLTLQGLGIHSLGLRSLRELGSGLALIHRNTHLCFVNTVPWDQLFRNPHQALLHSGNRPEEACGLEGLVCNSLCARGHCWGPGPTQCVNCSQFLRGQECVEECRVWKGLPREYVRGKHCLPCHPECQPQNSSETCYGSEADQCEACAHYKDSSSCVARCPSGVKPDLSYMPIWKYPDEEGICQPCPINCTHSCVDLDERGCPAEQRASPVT
T5 sequence (G7PIG5 entry or part of it): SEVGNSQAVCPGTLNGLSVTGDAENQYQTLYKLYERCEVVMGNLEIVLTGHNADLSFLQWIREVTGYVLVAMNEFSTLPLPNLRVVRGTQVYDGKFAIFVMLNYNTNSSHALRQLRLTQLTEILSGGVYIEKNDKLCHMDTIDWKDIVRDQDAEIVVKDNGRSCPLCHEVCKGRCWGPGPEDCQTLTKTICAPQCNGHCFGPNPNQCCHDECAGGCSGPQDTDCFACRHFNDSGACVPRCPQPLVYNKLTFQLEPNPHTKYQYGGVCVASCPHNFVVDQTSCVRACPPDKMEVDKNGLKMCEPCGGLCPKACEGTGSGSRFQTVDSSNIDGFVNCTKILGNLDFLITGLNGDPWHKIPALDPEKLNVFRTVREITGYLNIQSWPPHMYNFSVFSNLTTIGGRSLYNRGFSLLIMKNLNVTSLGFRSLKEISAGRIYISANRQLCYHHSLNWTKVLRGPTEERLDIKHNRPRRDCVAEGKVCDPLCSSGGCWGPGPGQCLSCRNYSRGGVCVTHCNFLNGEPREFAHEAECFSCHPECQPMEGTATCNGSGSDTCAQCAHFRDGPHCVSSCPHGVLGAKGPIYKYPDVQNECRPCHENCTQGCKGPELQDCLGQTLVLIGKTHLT
T6 sequence (Q61526 20-641 limits assumed): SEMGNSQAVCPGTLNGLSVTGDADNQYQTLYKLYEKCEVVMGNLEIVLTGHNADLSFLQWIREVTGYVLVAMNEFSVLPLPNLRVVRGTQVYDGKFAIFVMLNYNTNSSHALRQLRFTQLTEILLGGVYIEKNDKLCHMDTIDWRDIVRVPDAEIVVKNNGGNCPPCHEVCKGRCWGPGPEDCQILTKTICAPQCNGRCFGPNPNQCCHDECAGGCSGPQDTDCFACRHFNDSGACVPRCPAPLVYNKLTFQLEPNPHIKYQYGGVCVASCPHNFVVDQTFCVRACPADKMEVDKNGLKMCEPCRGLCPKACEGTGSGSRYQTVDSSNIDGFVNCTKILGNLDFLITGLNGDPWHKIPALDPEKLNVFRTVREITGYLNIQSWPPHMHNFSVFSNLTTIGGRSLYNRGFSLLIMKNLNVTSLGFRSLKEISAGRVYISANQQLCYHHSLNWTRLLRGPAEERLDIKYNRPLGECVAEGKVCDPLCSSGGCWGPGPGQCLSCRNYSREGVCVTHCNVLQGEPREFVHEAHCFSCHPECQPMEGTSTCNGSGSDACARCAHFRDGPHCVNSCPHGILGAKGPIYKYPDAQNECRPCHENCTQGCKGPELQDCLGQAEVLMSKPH

Row | Binder | Kd (cynomolgus EGFR antigen) [pM] | koff (cynomolgus EGFR antigen) [s⁻¹] | kon (cynomolgus EGFR antigen) [M⁻¹ s⁻¹] | Kd [1] [pM] | koff [1] [s⁻¹] | kon [1] [M⁻¹ s⁻¹] | binding result (cynomolgus HER3 antigen) | binding result (mouse HER3 antigen) | binding result (human HER4 antigen) | binding result [2] | binding result (mouse EGFR antigen) | binding result (murine HER4 antigen) | binding result (mouse HER2 antigen) | binding result [3]
1 | humanized anti-EGFR antibody 11294 (antibody, V domains shown) VH: EVQLVESGGGLVQPGGSLRLSCAASGFAFSYSDMSWVRQAPGKRLEWVSYMSSAGDVTFYSDTVKGRFTISRDNAKNSLYLQVNSLRAEDTAVYYCVRHRDVAIDYWGQGTTVTVSS VL: DVVMTQSPLSLPVTLGQPASISCRSSQSLVHSNLNTYLHWYQQRPGQSPRLLIYKVSNRFSGVPDRFSGSGSGTDFTLKISRVEAEDVGVYFCSQSTHVPTFGGGTKVEIK | 560 | – | – | – | – | – | no binding (tested: 40 nM) | no binding (tested: 40 nM) | no binding (tested: 40 nM) | no binding (tested: 40 nM) | no binding (tested: 40 nM) | no binding (tested: 40 nM) | no binding (tested: 40 nM) | no binding (tested: 40 nM)
2 | humanized anti-EGFR antibody 10560 (antibody, V domains shown, also called 10550 (misprint in some paragraphs)) VH: QVQLVQSGAEVKKPGASVKLSCKASGYTFTSYWMQWVRQAPGQGLEWIGNINPSNGGTSFNEEFKSRATMTRDTSTSTVYMELSSLRSEDTAVYYCARDGGLYDGYYFDFWGQGTLVTVSS VL: AIQLTQSPSSLSASVGDRVTITCKASQDVDTAVAWYQQKPGKAPKLLIYWASTRHTGVPSRFSGSGSGTDFTLTVSSLQPEDFATYFCQQYSSYPLTFGGGTKVEIK | 3100 | – | – | – | – | – | no binding (tested: 40 nM) | no binding (tested: 40 nM) | no binding (tested: 40 nM) | no binding (tested: 40 nM) | no binding (tested: 40 nM) | no binding (tested: 40 nM) | no binding (tested: 40 nM) | no binding (tested: 40 nM)
3 | humanized anti-EGFR antibody 11302 (antibody, V domains shown) VH: QVQLVQSGAEVKKPGASVKLSCKASGYTFTSYWMQWVRQAPGQGLEWIGNINPSNLGTSFNEEFKSRATMTRDTSTSTVYMELSSLRSEDTAVYYCARDGGLYDGYYFDFWGQGTLVTVSS VL: AIQLTQSPSSLSASVGDRVTITCKASQDVDTAVAWYQQKPGKAPKLLIYWASTRHTGVPSRFSGSGSGTDFTLTVSSLQPEDFATYFCQQYSSYPLTFGGGTKVEIK | 1200 | – | – | – | – | – | no binding (tested: 40 nM) | no binding (tested: 40 nM) | no binding (tested: 40 nM) | no binding (tested: 40 nM) | no binding (tested: 40 nM) | no binding (tested: 40 nM) | no binding (tested: 40 nM) | no binding (tested: 40 nM)

Continued by falling Kd (cynomolgus EGFR antigen), values first:

Row | Kd (cynomolgus EGFR antigen) [pM] | koff (cynomolgus EGFR antigen) [s⁻¹] | kon (cynomolgus EGFR antigen) [M⁻¹ s⁻¹] | Kd [1] [pM] | koff [1] [s⁻¹] | kon [1] [M⁻¹ s⁻¹] | binding result (cynomolgus HER3 antigen) | binding result (mouse HER3 antigen) | binding result (human HER4 antigen) | binding result [2] | binding result (mouse EGFR antigen) | binding result (murine HER4 antigen) | binding result (mouse HER2 antigen) | binding result [3] | Binder
4 | 28000 | 0.016 | 580000 | 350 | 0.00058 | 1.7e+06 | no binding (tested: 40 nM) | no binding (tested: 40 nM) | no binding (tested: 40 nM) | no binding (tested: 40 nM) | no binding (tested: 40 nM) | no binding (tested: 40 nM) | no binding (tested: 40 nM) | no binding (tested: 40 nM) | chimeric anti-EGFR antibody 1565 (antibody, V domains shown, light chain entry is full length) VH: EVQLQQSGTELVKPGASVILSCKASGYTFTSYWMQWVKQRPGQGLEWIGNINPSNGGTSFNEEFKSRATLTVDKSSSTAYMQLSSLTSEDSAVYYCARDGGLYDGYYFDFWGQGTTLTVS VL: NIVMTQSHKFMSTLIGARVSITCKASQDVDTAVAWYQQKPGQSPKLLIYWASTRHTGVPDRFTGSGSGTDFSLTVSNVQSEDLTDYFCQQYSSYPLTFGAGTKLELKR
5 | 350 | – | – | – | – | – | no binding (tested: 40 nM) | no binding (tested: 40 nM) | no binding (tested: 40 nM) | no binding (tested: 40 nM) | no binding (tested: 40 nM) | no binding (tested: 40 nM) | no binding (tested: 40 nM) | no binding (tested: 40 nM) | humanized anti-EGFR antibody 10292 (antibody, V domains shown) VH: EVQLVESGGGLVQPGGSLRLSCAASGFAFSYSDMSWVRQAPGKRLEWVSYMSSAGDVTFYSDTVKGRFTISRDNAKNSLYLQVNSLRAEDTAVYYCVRHRDVAMDYWGQGTTVTVSS VL: DIQMTQSPSSLSASVGDRATITCRSSQSLVHSNGNTYLHWYQQKPGKAPKLLIYKVSNRFSGVPSRFSGSGSGTDFTLTISSLQPEDFATYFCSQSTHVPTFGGGTKVEIK
